Patent US20120045438A1 (Janssen / Centocor, published 2012)

target: T1, human IL-13 R130Q variant (R110Q of the mature chain) (human, UniProt P35225 35-146, Biotinylated on amines (NHS-LC-biotin, 4:1) in ELISA, panning and competition assays. The letters are unchanged.); test: Ra2 binding inhibition ELISA, mAb in crude HEK293 supernatant, IL-13 binding to IL-13Ra2
T1 construct: R130Q counts from Met 1 of the signal peptide, R110Q on the mature chain; Bought from Peprotech; also called IL-13 R110Q; b-R130Q

Binder | % Ra2 Binding Inhibition [%]
mAb with Lc 1A05 (Lc6 variant) and Hc2 (antibody, V domains shown, human IgG1; del = residue deleted) VH: QVTLKESGPVLVKPTETLTLTCTVSGFSLSTYGMGVGWIRQPPGKALEWLAHIWWDDVKRYNPALKSRLTISKDTSKSQVVLTMTNMDPVDTATYYCARMGSDYDVWFDYWGQGTLVTVSS VL: EIVLTQSPATLSLSPGERATLSCRASKSISKYLAWYQQKPGQAPRLLIYSGSTLQSGIPARFSGSGSGTDFTLTISSLEPEDFAVYYCQQQDGPYTFGQGTKLEIK | 82.7

target: T1, human IL-13 R130Q variant (R110Q of the …); test: single-point (10 nM) phage Fab ELISA on biotinylated IL-13 R130Q

Binder | % of Lc16Hc7 [%]
Phage # 33 Fab (IL-13-142 library) (Fab, V domains shown, Fab on phage pIX) VH: QVTLKESGPVLVKPTETLTLTCTVSGFSLSTYGMGVGWIRQPPGKALEWLAHIWWDDVKRYNPALKSRLTISKDTSKSQVVLTMTNMDPVDTATYYCARMGSDYDVWFDYWGQGTLVTVSS VL: DIQMTQSPSTLSASVGDRVTITCRASKSISKYLAWYQQKPGKAPKLLIYSGSTLQSGVPSRFSGSGSGTEFTLTISSLQPDDFATYYCQQHDWGPYTFGGGTKVEIK | 124
Phage # 62 Fab (IL-13-142 library) (Fab, V domains shown, Fab on phage pIX; del = residue deleted) VH: QVTLKESGPVLVKPTETLTLTCTVSGFSLSTYGMGVGWIRQPPGKALEWLAHIWWDDVKRYNPALKSRLTISKDTSKSQVVLTMTNMDPVDTATYYCARMGSDYDVWFDYWGQGTLVTVSS VL: DIQMTQSPSTLSASVGDRVTITCRASKSISKYLAWYQQKPGKAPKLLIYSGSTLQSGVPSRFSGSGSGTEFTLTISSLQPDDFATYYCQQQDSPYTFGGGTKVEIK | 185
Phage # 48 Fab (IL-13-142 library) (Fab, V domains shown, Fab on phage pIX) VH: QVTLKESGPVLVKPTETLTLTCTVSGFSLSTYGMGVGWIRQPPGKALEWLAHIWWDDVKRYNPALKSRLTISKDTSKSQVVLTMTNMDPVDTATYYCARMGSDYDVWFDYWGQGTLVTVSS VL: DIQMTQSPSTLSASVGDRVTITCRASKSISKYLAWYQQKPGKAPKLLIYSGSTLQSGVPSRFSGSGSGTEFTLTISSLQPDDFATYYCQQHDWGPYTFGGGTKVEIK | 180
Phage # 93 Fab (IL-13-142 library) (Fab, V domains shown, Fab on phage pIX) VH: QVTLKESGPVLVKPTETLTLTCTVSGFSLSTYGMGVGWIRQPPGKALEWLAHIWWDDVKRYNPALKSRLTISKDTSKSQVVLTMTNMDPVDTATYYCARMGSDYDVWFDYWGQGTLVTVSS VL: DIQMTQSPSTLSASVGDRVTITCRASKSISKYLAWYQQKPGKAPKLLIYSGSTLQSGVPSRFSGSGSGTEFTLTISSLQPDDFATYYCQQHESGPYTFGGGTKVEIK | 223
Phage # 75 Fab (IL-13-142 library) (Fab, V domains shown, Fab on phage pIX) VH: QVTLKESGPVLVKPTETLTLTCTVSGFSLSTYGMGVGWIRQPPGKALEWLAHIWWDDVKRYNPALKSRLTISKDTSKSQVVLTMTNMDPVDTATYYCARMGSDYDVWFDYWGQGTLVTVSS VL: DIQMTQSPSTLSASVGDRVTITCRASKSISKYLAWYQQKPGKAPKLLIYSGSTLQSGVPSRFSGSGSGTEFTLTISSLQPDDFATYYCQQLSYEPYTFGGGTKVEIK | 355
Phage # 74 Fab (IL-13-142 library) (Fab, V domains shown, Fab on phage pIX) VH: QVTLKESGPVLVKPTETLTLTCTVSGFSLSTYGMGVGWIRQPPGKALEWLAHIWWDDVKRYNPALKSRLTISKDTSKSQVVLTMTNMDPVDTATYYCARMGSDYDVWFDYWGQGTLVTVSS VL: DIQMTQSPSTLSASVGDRVTITCRASKSISKYLAWYQQKPGKAPKLLIYSGSTLQSGVPSRFSGSGSGTEFTLTISSLQPDDFATYYCQQQDMGPYTFGGGTKVEIK | 301
Phage # 85 Fab (IL-13-142 library) (Fab, V domains shown, Fab on phage pIX) VH: QVTLKESGPVLVKPTETLTLTCTVSGFSLSTYGMGVGWIRQPPGKALEWLAHIWWDDVKRYNPALKSRLTISKDTSKSQVVLTMTNMDPVDTATYYCARMGSDYDVWFDYWGQGTLVTVSS VL: DIQMTQSPSTLSASVGDRVTITCRASKSISKYLAWYQQKPGKAPKLLIYSGSTLQSGVPSRFSGSGSGTEFTLTISSLQPDDFATYYCQQHMWGPYTFGGGTKVEIK | 259
Phage # 81 Fab (IL-13-142 library) (Fab, V domains shown, Fab on phage pIX) VH: QVTLKESGPVLVKPTETLTLTCTVSGFSLSTYGMGVGWIRQPPGKALEWLAHIWWDDVKRYNPALKSRLTISKDTSKSQVVLTMTNMDPVDTATYYCARMGSDYDVWFDYWGQGTLVTVSS VL: DIQMTQSPSTLSASVGDRVTITCRASKSISKYLAWYQQKPGKAPKLLIYSGSTLQSGVPSRFSGSGSGTEFTLTISSLQPDDFATYYCQQHDVGPYTFGGGTKVEIK | 231
Phage # 84 Fab (IL-13-142 library) (Fab, V domains shown, Fab on phage pIX) VH: QVTLKESGPVLVKPTETLTLTCTVSGFSLSTYGMGVGWIRQPPGKALEWLAHIWWDDVKRYNPALKSRLTISKDTSKSQVVLTMTNMDPVDTATYYCARMGSDYDVWFDYWGQGTLVTVSS VL: DIQMTQSPSTLSASVGDRVTITCRASKSISKYLAWYQQKPGKAPKLLIYSGSTLQSGVPSRFSGSGSGTEFTLTISSLQPDDFATYYCQQHLIEPYTFGGGTKVEIK | 186
Phage # 87 Fab (IL-13-142 library) (Fab, V domains shown, Fab on phage pIX) VH: QVTLKESGPVLVKPTETLTLTCTVSGFSLSTYGMGVGWIRQPPGKALEWLAHIWWDDVKRYNPALKSRLTISKDTSKSQVVLTMTNMDPVDTATYYCARMGSDYDVWFDYWGQGTLVTVSS VL: DIQMTQSPSTLSASVGDRVTITCRASKSISKYLAWYQQKPGKAPKLLIYSGSTLQSGVPSRFSGSGSGTEFTLTISSLQPDDFATYYCQQHSLGPYTFGGGTKVEIK | 125
Phage # 88 Fab (IL-13-142 library) (Fab, V domains shown, Fab on phage pIX) VH: QVTLKESGPVLVKPTETLTLTCTVSGFSLSTYGMGVGWIRQPPGKALEWLAHIWWDDVKRYNPALKSRLTISKDTSKSQVVLTMTNMDPVDTATYYCARMGSDYDVWFDYWGQGTLVTVSS VL: DIQMTQSPSTLSASVGDRVTITCRASKSISKYLAWYQQKPGKAPKLLIYSGSTLQSGVPSRFSGSGSGTEFTLTISSLQPDDFATYYCQQHFWGPYTFGGGTKVEIK | 193
Phage # 82 Fab (IL-13-142 library) (Fab, V domains shown, Fab on phage pIX) VH: QVTLKESGPVLVKPTETLTLTCTVSGFSLSTYGMGVGWIRQPPGKALEWLAHIWWDDVKRYNPALKSRLTISKDTSKSQVVLTMTNMDPVDTATYYCARMGSDYDVWFDYWGQGTLVTVSS VL: DIQMTQSPSTLSASVGDRVTITCRASKSISKYLAWYQQKPGKAPKLLIYSGSTLQSGVPSRFSGSGSGTEFTLTISSLQPDDFATYYCQQHDVSPYTFGGGTKVEIK | 342
Phage # 77 Fab (IL-13-142 library) (Fab, V domains shown, Fab on phage pIX) VH: QVTLKESGPVLVKPTETLTLTCTVSGFSLSTYGMGVGWIRQPPGKALEWLAHIWWDDVKRYNPALKSRLTISKDTSKSQVVLTMTNMDPVDTATYYCARMGSDYDVWFDYWGQGTLVTVSS VL: DIQMTQSPSTLSASVGDRVTITCRASKSISKYLAWYQQKPGKAPKLLIYSGSTLQSGVPSRFSGSGSGTEFTLTISSLQPDDFATYYCQQHDFAPYTFGGGTKVEIK | 195
Phage # 76 Fab (IL-13-142 library) (Fab, V domains shown, Fab on phage pIX) VH: QVTLKESGPVLVKPTETLTLTCTVSGFSLSTYGMGVGWIRQPPGKALEWLAHIWWDDVKRYNPALKSRLTISKDTSKSQVVLTMTNMDPVDTATYYCARMGSDYDVWFDYWGQGTLVTVSS VL: DIQMTQSPSTLSASVGDRVTITCRASKSISKYLAWYQQKPGKAPKLLIYSGSTLQSGVPSRFSGSGSGTEFTLTISSLQPDDFATYYCQQHLDLPYTFGGGTKVEIK | 256
Phage # 68 Fab (IL-13-142 library) (Fab, V domains shown, Fab on phage pIX; del = residue deleted) VH: QVTLKESGPVLVKPTETLTLTCTVSGFSLSTYGMGVGWIRQPPGKALEWLAHIWWDDVKRYNPALKSRLTISKDTSKSQVVLTMTNMDPVDTATYYCARMGSDYDVWFDYWGQGTLVTVSS VL: DIQMTQSPSTLSASVGDRVTITCRASKSISKYLAWYQQKPGKAPKLLIYSGSTLQSGVPSRFSGSGSGTEFTLTISSLQPDDFATYYCQQHDFPYTFGGGTKVEIK | 398
Phage # 78 Fab (IL-13-142 library) (Fab, V domains shown, Fab on phage pIX) VH: QVTLKESGPVLVKPTETLTLTCTVSGFSLSTYGMGVGWIRQPPGKALEWLAHIWWDDVKRYNPALKSRLTISKDTSKSQVVLTMTNMDPVDTATYYCARMGSDYDVWFDYWGQGTLVTVSS VL: DIQMTQSPSTLSASVGDRVTITCRASKSISKYLAWYQQKPGKAPKLLIYSGSTLQSGVPSRFSGSGSGTEFTLTISSLQPDDFATYYCQQHLMAPYTFGGGTKVEIK | 154
Phage # 83 Fab (IL-13-142 library) (Fab, V domains shown, Fab on phage pIX) VH: QVTLKESGPVLVKPTETLTLTCTVSGFSLSTYGMGVGWIRQPPGKALEWLAHIWWDDVKRYNPALKSRLTISKDTSKSQVVLTMTNMDPVDTATYYCARMGSDYDVWFDYWGQGTLVTVSS VL: DIQMTQSPSTLSASVGDRVTITCRASKSISKYLAWYQQKPGKAPKLLIYSGSTLQSGVPSRFSGSGSGTEFTLTISSLQPDDFATYYCQQHDMGPYTFGGGTKVEIK | 145
Phage # 80 Fab (IL-13-142 library) (Fab, V domains shown, Fab on phage pIX; del = residue deleted) VH: QVTLKESGPVLVKPTETLTLTCTVSGFSLSTYGMGVGWIRQPPGKALEWLAHIWWDDVKRYNPALKSRLTISKDTSKSQVVLTMTNMDPVDTATYYCARMGSDYDVWFDYWGQGTLVTVSS VL: DIQMTQSPSTLSASVGDRVTITCRASKSISKYLAWYQQKPGKAPKLLIYSGSTLQSGVPSRFSGSGSGTEFTLTISSLQPDDFATYYCQQQDYPYTFGGGTKVEIK | 163
Phage # 86 Fab (IL-13-142 library) (Fab, V domains shown, Fab on phage pIX) VH: QVTLKESGPVLVKPTETLTLTCTVSGFSLSTYGMGVGWIRQPPGKALEWLAHIWWDDVKRYNPALKSRLTISKDTSKSQVVLTMTNMDPVDTATYYCARMGSDYDVWFDYWGQGTLVTVSS VL: DIQMTQSPSTLSASVGDRVTITCRASKSISKYLAWYQQKPGKAPKLLIYSGSTLQSGVPSRFSGSGSGTEFTLTISSLQPDDFATYYCQQHDTGPYTFGGGTKVEIK | 334
Phage # 94 Fab (IL-13-142 library) (Fab, V domains shown, Fab on phage pIX) VH: QVTLKESGPVLVKPTETLTLTCTVSGFSLSTYGMGVGWIRQPPGKALEWLAHIWWDDVKRYNPALKSRLTISKDTSKSQVVLTMTNMDPVDTATYYCARMGSDYDVWFDYWGQGTLVTVSS VL: DIQMTQSPSTLSASVGDRVTITCRASKSISKYLAWYQQKPGKAPKLLIYSGSTLQSGVPSRFSGSGSGTEFTLTISSLQPDDFATYYCQQHDLGPYTFGGGTKVEIK | 272
